Results reported in PMC4334968.

Legend:
[1] = biological target: endogenous retromer (Vps26, Vps29, Vps35) (human (endogenous in HeLa and HaCaT)) (UniProt Q96QK1); test: proximity ligation
[2] = biological target: human retromer trimer assembled from Vps26, Vps29 and GST-tagged Vps35, Q96QK1;Q9UBQ0;O75436; test: pull-down on immobilized purified retromer trimer, anti-His immunoblot quantified; conditions: read off a plot

Substance	percent decrease of the PLA signal against wild-type PsV at eight hours [1]	ratio to parent ([2]; 5 µM MBP-L2, parent: est. 0.18)	ratio to parent ([2]; 10 µM MBP-L2, parent: est. 1.0)
HPV16 L2 double mutant (FYL/AAA and YYML/AAAA) with a carboxy-terminal 3xFLAG tag, in pseudovirus (from UniProt P03107 1-473) (natural protein)	70%		
Maltose binding protein (MBP)-L2-6His fusion protein, wild-type HPV16 L2 amino acids 434-457 F446A; Y447A; L448A		0.2	0.28
Maltose binding protein (MBP)-L2-6His fusion protein, wild-type HPV16 L2 amino acids 434-457 F446A; Y447A; L448A; Y452A; Y453A; M454A; L455A		0.17	0.21
Maltose binding protein (MBP)-L2-6His fusion protein, wild-type HPV16 L2 amino acids 434-457 Y452A; Y453A; M454A; L455A		0.29	0.38
